Results reported in US12551525B2, “Collagen peptide-based medicament compositions and devices and methods of production and use thereof” (SUSTAIN HOLDINGS, LLC, priority 2017, dated 2026).

Test system: corneal epithelium in wounded mouse eyes
Test: In vivo healing of mouse corneal epithelium (corneal wound model, fluorescein staining)
Design: species or system mouse (C57BL/6)
Conditions: positive control, 100 ng/ml; 16 hours post-wounding; compared to Cmpd 3 and Cmpd 10
Method: The FIG. 1s a series of photomicrographs depicting the healing of a wound in the cornea of mouse eye, at time 0 and 16 hours post-wounding, upon treatment with certain compositions of the present invention. Wounds were introduced into the corneas of mice, and the mice treated immediately after wounding with vehicle (PBS), with 100 ng/ml of epidermal growth factor (EGF), or with 25 nM (about 3 mg/kg) of a (Pro-Pro-Gly)7 CMP of the invention (SEQ ID NO:1) (“Cmpd 3”), or of a (Hyp-Pro-Gly)7-SubP CMP-TC of the invention (SEQ ID NO:390) (“Cmpd 10”).
To examine the possible therapeutic effects of CMPs and CMP-TC conjugates of the invention, studies were designed to test certain CMPs and CMP-TC conjugates in an in vivo setting—the healing of the corneal epithelium in wounded mouse eyes. […] Wound size at various time points over 48 hours was examined by fluorescein staining (see Carlson et al., id.), and documented via fluorescent photomicrography, and quantified using Image J software (see Rush, J. S. et al., Investig. Ophthalmol. Visual Sci. 57 (14): 5864-5871 (2016); Rush, J. S. et al., Investig. Ophthalmol. Visual Sci. 55 (8): 4691-4699 (2014)). […]

B1: epidermal growth factor (protein, UniProt P01133 23-1207, looked up)
Pro-epidermal growth factor: PQHWSCPEGTLAGNGNSTCVGPAPFLIFSHGNSIFRIDTEGTNYEQLVVDAGVSVIMDFHYNEKRIYWVDLERQLLQRVFLNGSRQERVCNIEKNVSGMAINWINEEVIWSNQQEGIITVTDMKGNNSHILLSALKYPANVAVDPVERFIFWSSEVAGSLYRADLDGVGVKALLETSEKITAVSLDVLDKRLFWIQYNREGSNSLICSCDYDGGSVHISKHPTQHNLFAMSLFGDRIFYSTWKMKTIWIANKHTGKDMVRINLHSSFVPLGELKVVHPLAQPKAEDDTWEPEQKLCKLRKGNCSSTVCGQDLQSHLCMCAEGYALSRDRKYCEDVNECAFWNHGCTLGCKNTPGSYYCTCPVGFVLLPDGKRCHQLVSCPRNVSECSHDCVLTSEGPLCFCPEGSVLERDGKTCSGCSSPDNGGCSQLCVPLSPVSWECDCFPGYDLQLDEKSCAASGPQPFLLFANSQDIRHMHFDGTDYGTLLSQQMGMVYALDHDPVENKIYFAHTALKWIERANMDGSQRERLIEEGVDVPEGLAVDWIGRRFYWTDRGKSLIGRSDLNGKRSKIITKENISQPRGIAVHPMAKRLFWTDTGINPRIESSSLQGLGRLVIASSDLIWPSGITIDFLTDKLYWCDAKQSVIEMANLDGSKRRRLTQNDVGHPFAVAVFEDYVWFSDWAMPSVMRVNKRTGKDRVRLQGSMLKPSSLVVVHPLAKPGADPCLYQNGGCEHICKKRLGTAWCSCREGFMKASDGKTCLALDGHQLLAGGEVDLKNQVTPLDILSKTRVSEDNITESQHMLVAEIMVSDQDDCAPVGCSMYARCISEGEDATCQCLKGFAGDGKLCSDIDECEMGVPVCPPASSKCINTEGGYVCRCSEGYQGDGIHCLDIDECQLGEHSCGENASCTNTEGGYTCMCAGRLSEPGLICPDSTPPPHLREDDHHYSVRNSDSECPLSHDGYCLHDGVCMYIEALDKYACNCVVGYIGERCQYRDLKWWELRHAGHGQQQKVIVVAVCVVVLVMLLLLSLWGAHYYRTQKLLSKNPKNPYEESSRDVRSRRPADTEDGMSSCPQPWFVVIKEHQDLKNGGQPVAGEDGQAADGSMQPTSWRQEPQLCGMGTEQGCWIPVSSDKGSCPQVMERSFHMPSYGTQTLEGGVEKPHSLLSANPLWQQRALDPPHQMELTQ
modifications: Pro-epidermal growth factor
notes: positive control growth factor
B1 was tested, and the “wound healing in mouse cornea and corneal stroma (reduction in diameter and intensity of fluorescein fluorescence)” value was “a lower level of healing”.
